Literature values in article PMC10178479.

Biological target: Mint2 (Homo sapiens) (UniProt Q99767)
Sequence of UniProt Q99767 (Q99767 whole entry): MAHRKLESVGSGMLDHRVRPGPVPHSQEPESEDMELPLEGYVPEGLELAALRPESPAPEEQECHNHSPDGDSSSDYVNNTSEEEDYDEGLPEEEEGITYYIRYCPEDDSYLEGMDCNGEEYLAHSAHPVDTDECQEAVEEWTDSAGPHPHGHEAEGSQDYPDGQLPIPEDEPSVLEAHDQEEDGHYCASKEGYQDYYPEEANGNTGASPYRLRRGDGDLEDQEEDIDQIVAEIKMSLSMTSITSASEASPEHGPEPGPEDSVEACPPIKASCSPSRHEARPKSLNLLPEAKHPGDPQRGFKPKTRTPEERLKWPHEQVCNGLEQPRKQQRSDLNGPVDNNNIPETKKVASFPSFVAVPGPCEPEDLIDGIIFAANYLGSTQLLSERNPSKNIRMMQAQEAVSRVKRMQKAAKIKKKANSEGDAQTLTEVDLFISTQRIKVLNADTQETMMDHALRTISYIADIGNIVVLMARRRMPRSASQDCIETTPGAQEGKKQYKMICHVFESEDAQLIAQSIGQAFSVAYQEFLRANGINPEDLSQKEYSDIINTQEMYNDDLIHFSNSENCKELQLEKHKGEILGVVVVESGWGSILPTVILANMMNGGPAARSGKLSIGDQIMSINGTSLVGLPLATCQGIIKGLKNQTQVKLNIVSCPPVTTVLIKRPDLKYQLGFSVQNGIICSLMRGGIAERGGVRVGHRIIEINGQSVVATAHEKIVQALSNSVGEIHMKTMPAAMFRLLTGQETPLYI

## APP peptide (APPWT)
  Ki: 4 µM
